The chains are these.
B1: Ribonuclease HII, O74035 (parent)
chain: MKIAGIDEAGRGPVIGPMVIAAVVVDENSLPKLEELKVRDSKKLTPKRREKLFNEILGVLDDYVILELPPDVIGSREGTLNEFEVENFAKALNSLKVKPDVIYADAADVDEERFARELGERLNFEAEVVAKHKADDIFPVVSAASILAKVTRDRAVEKLKEEYGEIGSGYPSDPRTRAFLENYYREHGEFPPIVRKGWKTLKKIAEKVESEKKAEERQATLDRYFRKV

Variants of B1 are the subject of the series. The note with it: Thermococcus kodakarensis (strain ATCC BAA-918 / JCM 12380 / KOD1), pH 9, CD, reversible: Yes, structure 1IO2, whole UniProt chain shown; for ddG of mutation (higher = less stable) / denaturant m value / denaturant midpoint (higher = more stable) / unfolding free energy: 50 °C, GdnHCl, Tris-HCl 20 mM; for Tm / change of melting temperature, mutant - wild type (higher = more stable): Thermal, Gly-NaOH 20 mM.

MKIAGIDEAGRGPVIGPMVIAAVVVDENSLPKLEELKVRDSKKLTPKRREKLFNEILGVLDDYVILELPPDVIGSREGTLNEFEVENFAKALNSLKVKPDVIYADAADVDEERFARELGERLNFEAEVVAKHKADDIFPVVSAASIAAKVTRDRAVEKLKEEYGEIGSGYPSDPRTRAFLENYYREHGEFPPIVRKGWKTLKKIAEKVESEKKAEERQATLDRYFRKV [L147A]: the “ddG of mutation (higher = less stable)” value was found to be 2.61 kcal/mol, the denaturant m value was determined as 6.19 kcal/mol/M, the “denaturant midpoint (higher = more stable)” value (“denaturant midpoint” for short) was found to be 1.38 M and the unfolding free energy amounted to 8.53 kcal/mol.
For the variant MKIAGIDEAGRGPVAGPMVIAAVVVDENSLPKLEELKVRDSKKLTPKRREKLFNEILGVLDDYVILELPPDVIGSREGTLNEFEVENFAKALNSLKVKPDVIYADAADVDEERFARELGERLNFEAEVVAKHKADDIFPVVSAASILAKVTRDRAVEKLKEEYGEIGSGYPSDPRTRAFLENYYREHGEFPPIVRKGWKTLKKIAEKVESEKKAEERQATLDRYFRKV [I15A], the “ddG of mutation (higher = less stable)” value turned out to be 2.13 kcal/mol, the denaturant m value was 4.3 kcal/mol/M, the “denaturant midpoint” value is 1.47 M and the unfolding free energy amounted to 6.31 kcal/mol.
What is called Tm is the temperature at the midpoint of the melting transition. With MKIAGIDEAGRGPVIGPMVIAAVVVDENSLPKAEELKVRDSKKLTPKRREKLFNEILGVLDDYVILELPPDVIGSREGTLNEFEVENFAKALNSLKVKPDVIYADAADVDEERFARELGERLNFEAEVVAKHKADDIFPVVSAASILAKVTRDRAVEKLKEEYGEIGSGYPSDPRTRAFLENYYREHGEFPPIVRKGWKTLKKIAEKVESEKKAEERQATLDRYFRKV [L33A], the Tm was 72.6 °C and the “change of melting temperature, mutant - wild type (higher = more stable)” value (from here on “change of melting temperature, mutant”) was -11.9 °C.
For the variant MKIAGIDEAGRGPVIGPMVIAAVVVDENSLPKLEELKVRDSKKLTPKRREKLFNEILGVLDDYVILELPPDVIGSREGTLNEFEVENFAKAANSLKVKPDVIYADAADVDEERFARELGERLNFEAEVVAKHKADDIFPVVSAASILAKVTRDRAVEKLKEEYGEIGSGYPSDPRTRAFLENYYREHGEFPPIVRKGWKTLKKIAEKVESEKKAEERQATLDRYFRKV [L92A], the “ddG of mutation (higher = less stable)” value amounted to 2.87 kcal/mol, the denaturant m value is 6 kcal/mol/M, the “denaturant midpoint” value was determined as 1.33 M and the unfolding free energy came to 8.01 kcal/mol. Moreover, the midpoint of thermal melting (Tm) came to 78.9 °C and the “change of melting temperature, mutant” value was -5.6 °C.
With MKIAGADEAGRGPVIGPMVIAAVVVDENSLPKLEELKVRDSKKLTPKRREKLFNEILGVLDDYVILELPPDVIGSREGTLNEFEVENFAKALNSLKVKPDVIYADAADVDEERFARELGERLNFEAEVVAKHKADDIFPVVSAASILAKVTRDRAVEKLKEEYGEIGSGYPSDPRTRAFLENYYREHGEFPPIVRKGWKTLKKIAEKVESEKKAEERQATLDRYFRKV [I6A], the midpoint of thermal melting (Tm) is 79.3 °C and the “change of melting temperature, mutant” value is -5.2 °C.
With MKIAGIDEAGRGPVIGPMVIAAVVVDENSLPKLEELKVRDSKKLTPKRREKLFNEILGVLDDYVILELPPDVIGSREGTLNEFEVENFAKALNSLKVKPDVIYADAADVDEERFAREAGERLNFEAEVVAKHKADDIFPVVSAASILAKVTRDRAVEKLKEEYGEIGSGYPSDPRTRAFLENYYREHGEFPPIVRKGWKTLKKIAEKVESEKKAEERQATLDRYFRKV [L118A], the “ddG of mutation (higher = less stable)” value amounted to 5.26 kcal/mol, the denaturant m value turned out to be 5.9 kcal/mol/M, the “denaturant midpoint” value stood at 0.9 M and the unfolding free energy stood at 5.31 kcal/mol. For the same variant, the Tm was 70.8 °C and the “change of melting temperature, mutant” value was -13.7 °C.
For MKIAGIDEAGRGPVIGPMVIAAVVVDENSLPKLEELKVRDSKKLTPKRREKLFNEILGVLDDYVILELPPDVIGSREGTLNEFEVENFAKALNSLKVKPDVAYADAADVDEERFARELGERLNFEAEVVAKHKADDIFPVVSAASILAKVTRDRAVEKLKEEYGEIGSGYPSDPRTRAFLENYYREHGEFPPIVRKGWKTLKKIAEKVESEKKAEERQATLDRYFRKV [I102A], the “ddG of mutation (higher = less stable)” value was 4.04 kcal/mol, the denaturant m value worked out at 5.9 kcal/mol/M, the “denaturant midpoint” value was found to be 1.12 M and the unfolding free energy came to 6.62 kcal/mol. For the same variant, the melting temperature (Tm) came to 73.8 °C and the “change of melting temperature, mutant” value was -10.7 °C.
Regarding MKIAGIDEAGRGPVIGPMVAAAVVVDENSLPKLEELKVRDSKKLTPKRREKLFNEILGVLDDYVILELPPDVIGSREGTLNEFEVENFAKALNSLKVKPDVIYADAADVDEERFARELGERLNFEAEVVAKHKADDIFPVVSAASILAKVTRDRAVEKLKEEYGEIGSGYPSDPRTRAFLENYYREHGEFPPIVRKGWKTLKKIAEKVESEKKAEERQATLDRYFRKV [I20A], the “ddG of mutation (higher = less stable)” value came to 4.42 kcal/mol, the denaturant m value came out at 5.74 kcal/mol/M, the “denaturant midpoint” value came to 1.05 M and the unfolding free energy was found to be 6.05 kcal/mol. The Tm came to 76.1 °C and the “change of melting temperature, mutant” value is -8.4 °C.
Consider MKIAGIDEAGRGPVIGPMVIAAVVVDENSLPKLEELKVRDSKKLTPKRREKLFNEALGVLDDYVILELPPDVIGSREGTLNEFEVENFAKALNSLKVKPDVIYADAADVDEERFARELGERLNFEAEVVAKHKADDIFPVVSAASILAKVTRDRAVEKLKEEYGEIGSGYPSDPRTRAFLENYYREHGEFPPIVRKGWKTLKKIAEKVESEKKAEERQATLDRYFRKV [I56A], for which the “ddG of mutation (higher = less stable)” value worked out at 3.97 kcal/mol, the denaturant m value is 5.35 kcal/mol/M, the “denaturant midpoint” value was found to be 1.13 M and the unfolding free energy came out at 6.05 kcal/mol. In addition, the Tm worked out at 75.8 °C and the “change of melting temperature, mutant” value is -8.7 °C.

For the origin of these results see FireProtDB (doi:10.1016/j.jmb.2008.02.039).
